Values of other authors, collected in patent US20100069292A1, “INSULIN WITH A BASAL RELEASE PROFILE” (Biodel, Inc., priority 2008, published 2010).

Experiments:
[1] = patients, compared with NPH insulin
[2] = in vivo

Substance: insulin glargine
- risk of low blood glucose (hypoglycemia) [1]: much lower risk of low blood glucose (hypoglycemia) than the patients who took NPH insulin
- duration of blood glucose lowering after injection [2]: up to 24 hours
